The values below come from the supplement of paper PMC7877785.

The series is described as follows: self-splicing fitness, log relative to wild type (ln ratio); higher = more splicing; Tetrahymena group I intron in knt gene, E. coli kanamycin selection, DiMSum; sequences stand for … in CUCUCU…GGAGGGAAAAGUUAUCAGGCAUGCACCUGGUAGCUAGUCUUUAAACCAAUAGAUUGCAUCGGUUUAAAAGGCAAGACCGUCAAAUUGCGGGAAAGGGGUCAACAGCCGUUCAGUACCAAGUCUCAGGGGAAACUUUGAGAUGGCCUUGCAAAGGGUAUGGUAAUAAGCUGACGGACAUGGUCCUAACCACGCAGCCAAGUCCUAAGUCAACAGAUCUUCUGUUGAUAUGGAUGCAGUUCACAGACUAAAUGUCGGUCGGGGAAGAUGUAUUCUUCUCAUAAGAUAUAGUCGGACCUCUCCUUAAUGGGAGCUAGCGGAUGAAGUGAUGCAACACUGGAGCCGCUGGGAACUAAUUUGUAUGCGAAAGUAUAUUGAUUAGUUUUGGAGUACUCGUGGUCG
In outline: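 A randomised library covering all eight P1ex-region intron nucleotides was built with the intron in the knt kanamycin-resistance gene on pET-22b(+) and held in E. coli BL21(DE3). Cells were grown overnight at 37°C or 30°C on LB agar, with or without 25 μg/mL kanamycin, plus 100 μg/mL carbenicillin, 50 μM IPTG and 0.2% rhamnose, and pooled colonies were amplicon-sequenced on an Illumina HiSeq 2500. DiMSum fitness is the error-weighted combination of wild-type-normalised replicate fold changes, kanamycin versus none.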

± gives the uncertainty stated by the source.

For the sequence AAAGAGCAAUAUUACGGGAU, the “self-splicing fitness (ln)” value is -4.18 ± 0.23 (30 °C) and -2.09 ± 0.17 (37 °C).

On to AUGGAGCAAUAUUACGACUG, for which the “self-splicing fitness (ln)” value (30 °C) was -2.28 ± 0.3.

For GACAAGCAAUAUUACGGUCA, the “self-splicing fitness (ln)” value (30 °C) is -0.777 ± 0.13 and the “self-splicing fitness (ln)” value (37 °C) is -0.735 ± 0.12.

Take GACUAGCAAUAUUACGUCGG: the “self-splicing fitness (ln)” value was -3.55 ± 0.21 (30 °C) and -3.32 ± 0.24 (37 °C).

As for CGAUAGCAAUAUUACGGUUU, the “self-splicing fitness (ln)” value reads like this: (30 °C) -3.43 ± 0.15; (37 °C) -0.7 ± 0.1.

For UCGAAGCAAUAUUACGAGUG, the “self-splicing fitness (ln)” value runs as follows: (30 °C) -1.56 ± 0.1; (37 °C) -1.52 ± 0.15.

UAACAGCAAUAUUACGAGCU: the “self-splicing fitness (ln)” value is, setting by setting: (30 °C) -3.71 ± 0.12; (37 °C) -2.37 ± 0.11.

Take ACGUAGCAAUAUUACGUGCA: the “self-splicing fitness (ln)” value (30 °C) was -2.38 ± 0.17 and the “self-splicing fitness (ln)” value (37 °C) is -0.124 ± 0.096.

On to GAACAGCAAUAUUACGCCAU, for which the “self-splicing fitness (ln)” value reads like this: (30 °C) -3.82 ± 0.2; (37 °C) -2.14 ± 0.18.

As for CAGGAGCAAUAUUACGCCCG, the “self-splicing fitness (ln)” value is -2.75 ± 0.42 (30 °C) and -0.874 ± 0.37 (37 °C).

Regarding AACCAGCAAUAUUACGGGCA, the “self-splicing fitness (ln)” value was -0.402 ± 0.041 (30 °C) and 0.117 ± 0.053 (37 °C).

In the case of GAGGAGCAAUAUUACGGACC, the “self-splicing fitness (ln)” value (37 °C) was -0.0508 ± 0.35.

GUGGAGCAAUAUUACGAGCG: the “self-splicing fitness (ln)” value is, setting by setting: (30 °C) -3.52 ± 0.38; (37 °C) -1.62 ± 0.31.

On to UGUCAGCAAUAUUACGGAGC, for which the “self-splicing fitness (ln)” value (37 °C) was -2.89 ± 0.43.

In the case of UAUGAGCAAUAUUACGCGUC, the “self-splicing fitness (ln)” value was -2.05 ± 0.16 (30 °C) and -2.81 ± 0.37 (37 °C).

With AUUAAGCAAUAUUACGAGGU, the “self-splicing fitness (ln)” value was -2.83 ± 0.24 (30 °C) and -2.1 ± 0.31 (37 °C).

With GGUUAGCAAUAUUACGGUCA, the “self-splicing fitness (ln)” value runs as follows: (30 °C) 0.387 ± 0.31; (37 °C) -1.03 ± 0.12.

CGGGAGCAAUAUUACGUGCG: the “self-splicing fitness (ln)” value is, setting by setting: (30 °C) -2.41 ± 0.46; (37 °C) -1.33 ± 0.43.

Turning to GCUGAGCAAUAUUACGAUUG, the “self-splicing fitness (ln)” value was -4.26 ± 0.32 (30 °C) and -3.02 ± 0.22 (37 °C).

Consider GGCAAGCAAUAUUACGCUCU, for which the “self-splicing fitness (ln)” value is, setting by setting: (30 °C) -2.51 ± 0.17; (37 °C) -1.96 ± 0.18.

With UGUGAGCAAUAUUACGCAGA, the “self-splicing fitness (ln)” value reads like this: (30 °C) -2.79 ± 0.29; (37 °C) -1.83 ± 0.48.

Regarding CAGCAGCAAUAUUACGGUAC, the “self-splicing fitness (ln)” value is, setting by setting: (30 °C) -3.46 ± 0.14; (37 °C) -2.26 ± 0.14.

As for AACAAGCAAUAUUACGGGGC, for the setting “37 °C”, the “self-splicing fitness (ln)” value was -2.18 ± 0.23.

As to AGCAAGCAAUAUUACGUGGC, the “self-splicing fitness (ln)” value was -2.83 ± 0.15 (30 °C) and -3.3 ± 0.21 (37 °C).

As to UUGGAGCAAUAUUACGUGGC, the “self-splicing fitness (ln)” value runs as follows: (30 °C) -3.14 ± 0.24; (37 °C) -0.804 ± 0.25.

Turning to GUCGAGCAAUAUUACGAUAG, under “30 °C”, the “self-splicing fitness (ln)” value was -4.14 ± 0.47.

As for AGCUAGCAAUAUUACGCCUC, the “self-splicing fitness (ln)” value was -2.07 ± 0.34 (30 °C) and -1.46 ± 0.37 (37 °C).

With CAACAGCAAUAUUACGGUCC, the “self-splicing fitness (ln)” value by setting is: (30 °C) -2.56 ± 0.17; (37 °C) -1.22 ± 0.16.

For CACCAGCAAUAUUACGGUUU, the “self-splicing fitness (ln)” value is, setting by setting: (30 °C) -0.79 ± 0.045; (37 °C) -0.0932 ± 0.065.

For CUAAAGCAAUAUUACGCGUA, the “self-splicing fitness (ln)” value reads like this: (30 °C) -3.35 ± 0.18; (37 °C) -2.63 ± 0.21.

On to UACCAGCAAUAUUACGUUUU, for which the “self-splicing fitness (ln)” value (30 °C) was -1.51 ± 0.094 and the “self-splicing fitness (ln)” value (37 °C) is -2.37 ± 0.15.

As for ACAAAGCAAUAUUACGCCUC, the “self-splicing fitness (ln)” value is, setting by setting: (30 °C) -2.8 ± 0.28; (37 °C) -2.2 ± 0.3.

Consider CUUCAGCAAUAUUACGGGCU, for which the “self-splicing fitness (ln)” value was -3.81 ± 0.27 (30 °C) and -2.83 ± 0.31 (37 °C).

In the case of UGCAAGCAAUAUUACGCGGA, the “self-splicing fitness (ln)” value is -2.23 ± 0.12 (30 °C) and -0.795 ± 0.12 (37 °C).

Turning to UACGAGCAAUAUUACGUUCC, the “self-splicing fitness (ln)” value (30 °C) is -2.83 ± 0.36.

On to AUCCAGCAAUAUUACGACUC, for which the “self-splicing fitness (ln)” value by setting is: (30 °C) -0.847 ± 0.071; (37 °C) 0.244 ± 0.1.

Regarding UACUAGCAAUAUUACGACAG, the “self-splicing fitness (ln)” value is -1.04 ± 0.1 (30 °C) and -0.806 ± 0.13 (37 °C).

With AACCAGCAAUAUUACGCAAU, the “self-splicing fitness (ln)” value is, setting by setting: (30 °C) -1.86 ± 0.081; (37 °C) -0.25 ± 0.098.

Regarding CAACAGCAAUAUUACGUGUU, the “self-splicing fitness (ln)” value was -3.54 ± 0.11 (30 °C) and -3.03 ± 0.15 (37 °C).
